Here are results for 167 variants from the MegaScale stability set (Tsuboyama et al. 2023).

To fix the notation:
B1: 2M8U (parent)
chain: TKAQVIEAFKVFDRDGNGYVTVDYLRKVLNELGDMMPADEIEEMIYEADPQNSGYVQYETFVGMLFL
B2: EHEE_rd2_0196 (parent)
chain: TETRTFDSEEEAKKAQKEAEKQGRTVTITRRDDRWEVRFD

The first data set covers variants of B1. Briefly: folding stability dG (cDNA display proteolysis); higher = more stable. The following applies: PBS, room temperature.
Regarding V20R, the “folding stability dG” value is 9.11 kJ/mol. Regarding V20F, the “folding stability dG” value came to 10.3 kJ/mol. On to T60V, for which the “folding stability dG” value was 13.8 kJ/mol. T60Q: the “folding stability dG” value came to 14.9 kJ/mol. Take T60C: the “folding stability dG” value stood at 14.4 kJ/mol. For the variant T60A, the “folding stability dG” value was determined as 15.2 kJ/mol. Regarding N52Q, the “folding stability dG” value came to 14.5 kJ/mol.

For N52E, the “folding stability dG” value stood at 14.2 kJ/mol.

Consider N52M, for which the “folding stability dG” value came to 14.3 kJ/mol.

As to E43T, the “folding stability dG” value turned out to be 15.6 kJ/mol. In the case of E43L, the “folding stability dG” value amounted to 15.6 kJ/mol.

Regarding D39V, the “folding stability dG” value came out at 16.8 kJ/mol. D39K: the “folding stability dG” value came out at 15.9 kJ/mol.

For D39H, the “folding stability dG” value stood at 15.5 kJ/mol. On to D39R, for which the “folding stability dG” value was found to be 15.7 kJ/mol. In the case of A3S, the “folding stability dG” value came out at 14.5 kJ/mol. Regarding A3C, the “folding stability dG” value is 14.5 kJ/mol. As for M35K, the “folding stability dG” value was 13.2 kJ/mol. As to M35Q, the “folding stability dG” value turned out to be 12.9 kJ/mol. Regarding M35P, the “folding stability dG” value was 13 kJ/mol. As to E7M, the “folding stability dG” value amounted to 13.1 kJ/mol. On the same count and under the same terms, under E7V stands 12.9 kJ/mol.

In the case of F66E, the “folding stability dG” value was found to be 10.7 kJ/mol. Same read-out and setting: then F66I, with 11.9 kJ/mol; and F66S, with 11.4 kJ/mol; and F66K, with 11.4 kJ/mol. Consider K2V, for which the “folding stability dG” value came to 14.2 kJ/mol. Same read-out and setting: under K2Y stands 13.5 kJ/mol; under K2W, 11.2 kJ/mol. Consider V28P, for which the “folding stability dG” value is 5.72 kJ/mol. As to V28L, the “folding stability dG” value is 11.3 kJ/mol.

For V28T, the “folding stability dG” value worked out at 11.5 kJ/mol.

For the variant V28H, the “folding stability dG” value is 9.07 kJ/mol.

For E47C, the “folding stability dG” value was 15.3 kJ/mol. Still for that read-out and setting: under E47W stands 15.7 kJ/mol; under E47A, 15.7 kJ/mol; under L25C, 12.1 kJ/mol. For the variant L25R, the “folding stability dG” value came to 9.44 kJ/mol. On to E40M, for which the “folding stability dG” value came to 15.3 kJ/mol.

With E40N, the “folding stability dG” value worked out at 17.1 kJ/mol. Regarding E40T, the “folding stability dG” value was 15.8 kJ/mol. On to V56Q, for which the “folding stability dG” value came out at 8.18 kJ/mol.

As to V56A, the “folding stability dG” value turned out to be 11.3 kJ/mol.

Consider V56Y, for which the “folding stability dG” value is 9.6 kJ/mol.

Consider V56G, for which the “folding stability dG” value turned out to be 11 kJ/mol. Same read-out and setting: then P50G, with 12.6 kJ/mol. In the case of P50W, the “folding stability dG” value stood at 14.2 kJ/mol. On the same count and under the same terms, under Y24N stands 18.8 kJ/mol; under Y24F, 14.7 kJ/mol.

Y24I: the “folding stability dG” value turned out to be 19 kJ/mol. As for E59G, the “folding stability dG” value was 11.6 kJ/mol. With E59K, the “folding stability dG” value was 13.5 kJ/mol.

As for E59M, the “folding stability dG” value was 16.4 kJ/mol. With L32S, the “folding stability dG” value was 10.7 kJ/mol.

Take R14H: the “folding stability dG” value turned out to be 15.4 kJ/mol. Take Y46M: the “folding stability dG” value came to 15 kJ/mol. In the case of N17V, the “folding stability dG” value amounted to 13.7 kJ/mol. On the same count and under the same terms, under N17A stands 13.1 kJ/mol.

In the next data set the parent is B2. The description is as above. To be noted: PBS, room temperature.
With R38K, the “folding stability dG” value was 12.4 kJ/mol. In the case of R38H, the “folding stability dG” value was 12.7 kJ/mol. Still for that read-out and setting: then R38P, with 2.84 kJ/mol; and R38V, with 12.7 kJ/mol; and R38Q, with 11.9 kJ/mol.

Turning to R38M, the “folding stability dG” value stood at 11.5 kJ/mol. Still for that read-out and setting: under R38W stands 9.08 kJ/mol. As to R38N, the “folding stability dG” value turned out to be 11.4 kJ/mol. R38S: the “folding stability dG” value stood at 12.6 kJ/mol.

R38T: the “folding stability dG” value was 13.2 kJ/mol. Take R38E: the “folding stability dG” value turned out to be 11.2 kJ/mol.

Consider R38Y, for which the “folding stability dG” value stood at 9.39 kJ/mol. On the same count and under the same terms, then R38G, with 8.8 kJ/mol; and R38L, with 11.3 kJ/mol; and R38I, with 12.8 kJ/mol. The same measure, in the same setting: under R38D stands 9.13 kJ/mol; under R38A, 11.7 kJ/mol.

On to R38F, for which the “folding stability dG” value came to 9.73 kJ/mol.

With F39A, the “folding stability dG” value came to 9.77 kJ/mol. For the variant F39P, the “folding stability dG” value was 8.64 kJ/mol. In the case of F39S, the “folding stability dG” value turned out to be 10.3 kJ/mol. As to F39V, the “folding stability dG” value turned out to be 12.3 kJ/mol. Regarding F39K, the “folding stability dG” value stood at 5.41 kJ/mol. Regarding F39L, the “folding stability dG” value is 11.4 kJ/mol. On to F39Q, for which the “folding stability dG” value is 8.46 kJ/mol. Still for that read-out and setting: under F39Y stands 13.2 kJ/mol; under F39I, 14 kJ/mol; under F39E, 10.5 kJ/mol. On to F39D, for which the “folding stability dG” value was 10.5 kJ/mol.

On to F39W, for which the “folding stability dG” value worked out at 12.3 kJ/mol. For F39T, the “folding stability dG” value worked out at 10.4 kJ/mol. In the case of F39N, the “folding stability dG” value came to 7.58 kJ/mol. Take F39C: the “folding stability dG” value came to 8.94 kJ/mol. With F39H, the “folding stability dG” value came to 8.05 kJ/mol. For the variant F39R, the “folding stability dG” value amounted to 5.66 kJ/mol. Turning to F39G, the “folding stability dG” value is 7.83 kJ/mol. Same read-out and setting: then F39M, with 12.4 kJ/mol. For D40G, the “folding stability dG” value was determined as 12.3 kJ/mol. Take D40M: the “folding stability dG” value was 12.6 kJ/mol. As to D40V, the “folding stability dG” value turned out to be 13.4 kJ/mol. Still for that read-out and setting: under D40I stands 13.1 kJ/mol. Turning to D40Y, the “folding stability dG” value was found to be 11.7 kJ/mol. For D40P, the “folding stability dG” value was 9.61 kJ/mol. Still for that read-out and setting: under D40K stands 9.61 kJ/mol.

For D40N, the “folding stability dG” value turned out to be 12.1 kJ/mol.

As to D40S, the “folding stability dG” value was 13.1 kJ/mol. For the variant D40E, the “folding stability dG” value came to 13.7 kJ/mol. Turning to D40F, the “folding stability dG” value is 11.9 kJ/mol. On the same count and under the same terms, under D40R stands 10.1 kJ/mol; under D40W, 12.1 kJ/mol; under D40L, 12.8 kJ/mol. As to D40H, the “folding stability dG” value was 12.5 kJ/mol.

For D40Q, the “folding stability dG” value is 12.2 kJ/mol. On to D40T, for which the “folding stability dG” value is 13.2 kJ/mol. As to D40A, the “folding stability dG” value was found to be 12.4 kJ/mol.

For W35Q, the “folding stability dG” value is 1.46 kJ/mol. For W35N, the “folding stability dG” value was found to be 1.66 kJ/mol. Turning to W35A, the “folding stability dG” value came to 1.74 kJ/mol. On the same count and under the same terms, then W35G, with 1.51 kJ/mol; and W35Y, with 8.7 kJ/mol; and W35L, with 3.61 kJ/mol. On to W35E, for which the “folding stability dG” value was 2.01 kJ/mol. As to W35I, the “folding stability dG” value was 5.03 kJ/mol.

In the case of W35P, the “folding stability dG” value turned out to be 1.85 kJ/mol. Still for that read-out and setting: then W35D, with 2.42 kJ/mol; and W35H, with 2.21 kJ/mol; and W35R, with 0.879 kJ/mol. W35T: the “folding stability dG” value was 1.67 kJ/mol. Still for that read-out and setting: then W35M, with 2.35 kJ/mol; and W35V, with 3.17 kJ/mol. Regarding W35S, the “folding stability dG” value amounted to 1.98 kJ/mol. Still for that read-out and setting: then W35K, with 0.243 kJ/mol. As to W35F, the “folding stability dG” value stood at 9.14 kJ/mol. For the variant E36K, the “folding stability dG” value is 3.56 kJ/mol. On to E36T, for which the “folding stability dG” value is 7.27 kJ/mol. With E36Y, the “folding stability dG” value came to 10.7 kJ/mol. Still for that read-out and setting: then E36N, with 4.79 kJ/mol. The same measure, in the same setting: under E36D stands 8.6 kJ/mol; under E36A, 5.54 kJ/mol.

Consider E36W, for which the “folding stability dG” value came to 8.11 kJ/mol. Same read-out and setting: then E36V, with 12.1 kJ/mol; and E36G, with 2.7 kJ/mol.

In the case of E36H, the “folding stability dG” value is 8.7 kJ/mol. For the variant E36S, the “folding stability dG” value was 4.97 kJ/mol.

As to E36R, the “folding stability dG” value was found to be 4.53 kJ/mol.

Regarding E36F, the “folding stability dG” value amounted to 10.5 kJ/mol. As to E36M, the “folding stability dG” value was found to be 8.61 kJ/mol. The same measure, in the same setting: under E36L stands 10.3 kJ/mol; under E36I, 12.5 kJ/mol. As to E36Q, the “folding stability dG” value was 8.14 kJ/mol.

V37L: the “folding stability dG” value stood at 11.9 kJ/mol.

Take V37T: the “folding stability dG” value was 5.49 kJ/mol. On the same count and under the same terms, under V37D stands 1.74 kJ/mol; under V37S, 2.02 kJ/mol.

Regarding V37I, the “folding stability dG” value turned out to be 11.1 kJ/mol. In the case of V37Q, the “folding stability dG” value amounted to 1.61 kJ/mol.

V37F: the “folding stability dG” value is 4.29 kJ/mol.

Take V37P: the “folding stability dG” value was 2.31 kJ/mol. With V37C, the “folding stability dG” value amounted to 7.53 kJ/mol. Still for that read-out and setting: under V37W stands -0.0251 kJ/mol; under V37A, 7.9 kJ/mol.

With V37G, the “folding stability dG” value stood at 4.56 kJ/mol. With V37R, the “folding stability dG” value is -1.57 kJ/mol.

As to V37Y, the “folding stability dG” value was determined as 1.85 kJ/mol. As to V37K, the “folding stability dG” value came out at 1.57 kJ/mol. On the same count and under the same terms, then V37H, with 0.887 kJ/mol; and V37N, with 2.26 kJ/mol; and V37M, with 9.07 kJ/mol. V37E: the “folding stability dG” value was found to be 1.55 kJ/mol.
